Sequences and labels used below:
B1: AMACO P2 (domain or fragment)
chain: SSSALCTTADPDCRVEPHPCERRTLETVRELAGNALCWRGSRQADTVLALPCPFYSWKRVFQTHPANCYRTICPGPCDSQPCQNGGTCIPEGVDRYHCLCPLAFGGEVNCAPKLSLECRIDVLFLLDSSAGTTLGGFRRAKAFVKRFVQAVLREDSRARVGIASYGRNLMVAVPVGEYQHVPDLIRSLDSIPFSGGPTLTGSALLQVAEHGFGSASRTGQDRPRRVVVLLTESRSQDEVSGPAAHARARELLLLGVGSEILQAELVKITGSPKHVMVHTDPQDLFSQIPELQRRL
modifications: two unusual glycan chains
B2: Fras1 CSPG (domain or fragment)
chain: TPSLHVNGSLTLGIGSMKPLDFSLLNIQHQDGRVEDLLFHVVSTPTNGQLLLSRNGKEVQLEKAGHFSWKDVNEKKVRFVHSKEKLRKGYFSLKISDQQFFSEPQLINIQAFSTQAPYVLRNEVLHVSKGERATITTQLLDIRDDDNPQDVVVNVLDPPLHGQLLQMPPAPAASIYQFHLDELSRGLLLYAHDGSDSTSDIIVFQANDGHSFQNILFHVKNIPKNDRALRLVTNSMVWVPEGGMLKITNRILKAQAPGVRADDIIYKITHSRPQFGEVVLLMNLPADSPAGPAEEGHHLPDGRMATPISTFTQQDIDDGVVWYRHLGAPTQSDSFRFQVSSATSAQEHLESHMFNIAILPQAPEAPKLSLGTSLHMTAREDGLSVIQPQSLSFVKAESPSGKIIYNITVPLHPNQGIIEHRDRPHSPIQYFTQEDINQGQIMYRPPVAPPHLQEIMAFSFAGLPESVKFYFTVSDGQHTSPEMALTIHLLHSDLQPPAFQVKAPLLEVSPGGRTSLGLQLLVRDAQVVPEELFFQLQKSPQHGMLVKYTAKSSVTMAAGDTFTYDEVERNVLQYVHDGSSAWEDSLEISVTDGLTVTTSEVKVEVSPSENRGPRLAPGSSLSMTVASQHTAIITRSHLAYVDDSSSDPEIWIRLSSLPLYGVLFRSSGPDMDELSGDSNFTMEDINKKNIRYSAVFETDGHSVTDGFHFSVSDMDGNHVDNQVFTITVTPAENPPHIIAFADLITVDEGGRAPLSLHHFFATEDQDNLQDDAVIKLSALPKYGCIENTGTGDRFGPGANSELEASFPIQDVLENYIYYFQSVHESIEPTHDVFSFYVSDGSGRSEIHSINITIERKNDEPPRMTLRPLGVRLSSGVAISNSSLSLQDLDTPDNELIFVLMKKPDHGHLLRRSTASDPLENGTVLDQGSSFTYQDVLAGLVGYLPGDIYMAVDEFRFSLTDGLHVDTGRMEIYIELPSTNIPHLAINRGLQLSAGSVARITEQHLKATDTDSEAGQVVYIMKEDPGAGRLLMAKADNLEQISVRGPIRSFTQADVSQGQIEYSHGPGEPGGSFAFKFDVVDGEGNKLADQSFSIGVLEDKSPPVVITNRGLVLDENSVEKITTAQLSATDQDSKPTELIYRITTQPQLGHLEHVASPGIQISSFTQADLASRNVQYVRSSGTGKQSDAFSFVLSDGLHEVTQTFPITIHPVDDARPLVQNRGMRVQEGVRKTITEFELKAVDVDTEAESITFTIVQPPRHGTIERTARGQRFHQTSSFTMEDIYQNRVSYSHDGSNSLKDRFTFTVSDGTNPFFIIEEGGEEIMTAAPQQFHVDILPVDDGTPRIVTNLGLQWLEYMDGKATNLITKKELLTVDPDTEDSQLIYEVTTGPMHGYLENKLQPGRAAATFTQEHVNLGLIRYVLYEEKIQKVMDSFQFLVKDSKPNV

The test “Fras1 CSPG” addresses B2. The experiment in a line: SPR. (In general: SPR reads the build-up and loss of mass on a sensor chip optically.)
The test “AMACO P2” concerns the target B1. The experiment in a line: SPR.

Consider two molecules from publication PMC4361737 (The Journal of investigative dermatology, 2013).

The Kd is the free concentration of one partner at which half of the binding sites on the other are occupied at equilibrium, for simple one-to-one binding. Lower therefore signals tighter binding.

B1: the Kd with Fras1 CSPG was 151 nM. B2 displayed a Kd with AMACO P2 of 42 nM.
